# Measurements from the supplement of paper PMC9233669.
# This sample holds only a part of the variants without activity.
# Key:
# biotinyl-Trp-oxazolone = experiment: self-aminoacylation, catalytic enhancement (BWO) (fold over background); higher = more active; k-Seq, kA / k0A0; sequences stand for … in GGGAAUGGAUCCACAUCUACGAAUUC…UUCACUGCAGACUUGACGAAGCUG
# Outline: (§1)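 The uncatalyzed rate is the low-activity peak of a bimodal Gaussian fit, and catalytic enhancement is median kA divided by it. The kA values came from pseudo-first-order fits, with 1000 bootstraps, of per-sequence fraction reacted measured by streptavidin capture, triplicate qPCR and Illumina sequencing. Mutagenized RNA pools with a 21-nt variable region (0.43 μM) were reacted with each biotinyl-aminoacyl-oxazolone at 2–1250 μM in 50 μL HEPES/NaCl/KCl/MgCl2/CaCl2 buffer with 5% acetonitrile, pH 6.9–7.0, for 90 minutes at room temperature.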
# biotinyl-Met-oxazolone = experiment: self-aminoacylation, catalytic enhancement (BMO) (fold over background); higher = more active; k-Seq, kA / k0A0; sequences stand for … in GGGAAUGGAUCCACAUCUACGAAUUC…UUCACUGCAGACUUGACGAAGCUG
# Outline: as §1
# biotinyl-Val-oxazolone = experiment: self-aminoacylation, catalytic enhancement (BVO) (fold over background); higher = more active; k-Seq, kA / k0A0; sequences stand for … in GGGAAUGGAUCCACAUCUACGAAUUC…UUCACUGCAGACUUGACGAAGCUG
# Outline: as §1
# biotinyl-Leu-oxazolone = experiment: self-aminoacylation, catalytic enhancement (BLO) (fold over background); higher = more active; k-Seq, kA / k0A0; sequences stand for … in GGGAAUGGAUCCACAUCUACGAAUUC…UUCACUGCAGACUUGACGAAGCUG
# Outline: as §1
# biotinyl-Ile-oxazolone = experiment: self-aminoacylation, catalytic enhancement (BIO) (fold over background); higher = more active; k-Seq, kA / k0A0; sequences stand for … in GGGAAUGGAUCCACAUCUACGAAUUC…UUCACUGCAGACUUGACGAAGCUG
# Outline: as §1
# biotinyl-Phe-oxazolone = experiment: self-aminoacylation, catalytic enhancement (BFO) (fold over background); higher = more active; k-Seq, kA / k0A0; sequences stand for … in GGGAAUGGAUCCACAUCUACGAAUUC…UUCACUGCAGACUUGACGAAGCUG
# Outline: as §1
Sequence,self-aminoacylation (biotinyl-Trp-oxazolone),self-aminoacylation (biotinyl-Met-oxazolone),self-aminoacylation (biotinyl-Val-oxazolone),self-aminoacylation (biotinyl-Leu-oxazolone),self-aminoacylation (biotinyl-Ile-oxazolone),self-aminoacylation (biotinyl-Phe-oxazolone)
AUUCACCUAGGACAUCGGCUG [Fam2.2 aminoacylation ribozyme variant],2.64,2.02,1.79,2.32,1.7,10.9
AUUCACCUAGGACAUCGGGUG [Fam2.2 aminoacylation ribozyme variant],3.1,3.19,2.6,3.89,2.55,18.8
AUUCACCUAGGACAUCGGGUU [Fam2.2 aminoacylation ribozyme variant],1.25,1.39,1.77,1.38,1.47,3.67
AUUCACCUAGGAGAUCGGGUG [Fam2.2 aminoacylation ribozyme variant],5.46,4.82,3.54,7.83,3.82,34.3
AUUCACCUAGGCCAUCGGGGG [Fam2.2 aminoacylation ribozyme variant],2.28,2.64,2.82,4.55,2.5,10.8
AUUCACCUAGGCCAUCUGGUG [Fam2.2 aminoacylation ribozyme variant],2.35,2.74,2.05,3.29,1.54,13.2
AUUCACCUAGGCCAUGGGGUG [Fam2.2 aminoacylation ribozyme variant],6.1,8.03,3.87,10.2,4.58,42.5
AUUCACCUAGGCGAUCGGGUG [Fam2.2 aminoacylation ribozyme variant],3.78,3.5,3.52,4.89,2.88,20.4
AUUCACCUAGGGAAUCGGGUG [Fam2.2 aminoacylation ribozyme variant],4.86,5.05,3.23,7.44,3.54,36.4
AUUCACCUAGGGCAUAGGGUG [Fam2.2 aminoacylation ribozyme variant],4.16,4.74,2.76,6.33,3.22,38.6
AUUCACCUAGGGCAUCGAGUG [Fam2.2 aminoacylation ribozyme variant],0.91,1.45,1.2,1.65,1.26,1.76
AUUCACCUAGGGCAUCGGGAG [Fam2.2 aminoacylation ribozyme variant],1.08,0.855,1.04,1.1,1.07,0.472
AUUCACCUAGGGCAUGGGGUG [Fam2.2 aminoacylation ribozyme variant],9.2,10.1,5.39,12,5.82,81.4
AUUCACCUAGGGCCUCGGGUG [Fam2.2 aminoacylation ribozyme variant],3.99,3.51,2.66,3.89,2.37,20.3
AUUCACCUAGGGCUUCGGGUG [Fam2.2 aminoacylation ribozyme variant],3.63,3.39,2.92,2.82,2.69,15.1
AUUCACCUAGGUAAUCGGGCG [Fam2.2 aminoacylation ribozyme variant],2.33,1.66,1.65,2.62,1.63,7.69
AUUCACCUAGGUAAUCGUGUG [Fam2.2 aminoacylation ribozyme variant],0.758,0.915,0.838,1.14,0.879,3.38
AUUCACCUAGGUAGUCGGGUG [Fam2.2 aminoacylation ribozyme variant],3.31,3.28,2.35,3.89,2.02,15.8
AUUCACCUAGGUCAACCGGUG [Fam2.2 aminoacylation ribozyme variant],4.14,4.9,2.72,6.28,2.99,26.6
AUUCACCUAGGUCAACGGCUG [Fam2.2 aminoacylation ribozyme variant],0.872,1.07,1.09,1.17,1.12,0.492
AUUCACCUAGGUCAACGGGUG [Fam2.2 aminoacylation ribozyme variant],3.49,4.01,2.48,5.19,2.5,27.5
AUUCACCUAGGUCACCGGCUG [Fam2.2 aminoacylation ribozyme variant],2.12,2.27,2.36,3.16,2.51,12.9

Sequence,self-aminoacylation (biotinyl-Trp-oxazolone),self-aminoacylation (biotinyl-Met-oxazolone),self-aminoacylation (biotinyl-Val-oxazolone),self-aminoacylation (biotinyl-Leu-oxazolone),self-aminoacylation (biotinyl-Ile-oxazolone),self-aminoacylation (biotinyl-Phe-oxazolone)
AUUCACCUAGGUCACCGGGAG [Fam2.2 aminoacylation ribozyme variant],1.81,2.05,1.43,1.77,1.49,5.9
AUUCACCUAGGUCACCGGGUA [Fam2.2 aminoacylation ribozyme variant],3.11,2.79,2.46,3.2,2.6,14
AUUCACCUAGGUCACCGGGUG [Fam2.2 aminoacylation ribozyme variant],4.63,4.95,3.55,6.44,3.51,32.2
AUUCACCUAGGUCACCGGUUG [Fam2.2 aminoacylation ribozyme variant],1.29,1.62,1.7,1.55,1.92,7.82
AUUCACCUAGGUCACUGGGUG [Fam2.2 aminoacylation ribozyme variant],2.52,2.82,1.72,3.93,1.8,19.7
AUUCACCUAGGUCAGCGGGUU [Fam2.2 aminoacylation ribozyme variant],1.94,1.65,2.15,2.42,2.56,4.6
AUUCACCUAGGUCAGCUGGUG [Fam2.2 aminoacylation ribozyme variant],1.7,2.56,1.64,2.7,1.92,15.1
AUUCACCUAGGUCAGUGGGUG [Fam2.2 aminoacylation ribozyme variant],0.885,1,0.999,1.26,0.904,1.08
AUUCACCUAGGUCAUAGGGUU [Fam2.2 aminoacylation ribozyme variant],0.959,0.827,0.804,0.676,0.918,0.392
AUUCACCUAGGUCAUAUGGUG [Fam2.2 aminoacylation ribozyme variant],3.68,3.44,2.25,4.8,2.25,20.3
AUUCACCUAGGUCAUCACGUG [Fam2.2 aminoacylation ribozyme variant],3.56,3.99,2.62,4.54,2.03,23.1
AUUCACCUAGGUCAUCCGGGG [Fam2.2 aminoacylation ribozyme variant],3.23,3.21,2.84,4.27,3.2,7.28
AUUCACCUAGGUCAUCCGUUG [Fam2.2 aminoacylation ribozyme variant],0.699,0.997,1.19,1.16,1.31,4.37
AUUCACCUAGGUCAUCCUGUG [Fam2.2 aminoacylation ribozyme variant],0.316,0.923,0.885,1.04,1.13,1.42
AUUCACCUAGGUCAUCGACUG [Fam2.2 aminoacylation ribozyme variant],0.318,0.561,0.6,0.553,0.564,0.459
AUUCACCUAGGUCAUCGAGAG [Fam2.2 aminoacylation ribozyme variant],0.394,1.07,0.848,1.47,0.915,1.13
AUUCACCUAGGUCAUCGAGUA [Fam2.2 aminoacylation ribozyme variant],3.9,9.81,5.92,13.1,7.22,31.7
AUUCACCUAGGUCAUCGCAUG [Fam2.2 aminoacylation ribozyme variant],1.06,1.04,1.28,1.22,1.05,0.374
AUUCACCUAGGUCAUCGGAUU [Fam2.2 aminoacylation ribozyme variant],1.19,0.853,0.864,0.837,0.872,0.438
AUUCACCUAGGUCAUCGGGGU [Fam2.2 aminoacylation ribozyme variant],7.01,7.67,5.09,12.2,5.09,40.5
AUUCACCUAGGUCAUCGGUUU [Fam2.2 aminoacylation ribozyme variant],0.984,1.19,1.41,1.28,1.19,1.09
